# Where “and” joins values, the source holds several entries; their conditions need not be identical. Equal entries are not always repeated. Where two headings read alike, the source gives them in different places.
# Experiments:
# [1] = target: human DR3 with the death domain deleted (ΔM339-P417 of SEQ ID NO:1), expressed on CHOK1SV cells (human) (UniProt Q93038); experiment: flow cytometry competition: Fab vs TL1A on hDR3-expressing CHO cells (isotype control; IC50 cell: No inhib)
# [2] = target: T1, human DR3 (full length, on cells) (human) (UniProt Q93038); experiment: cell-based or functional assay
# T1 sequence: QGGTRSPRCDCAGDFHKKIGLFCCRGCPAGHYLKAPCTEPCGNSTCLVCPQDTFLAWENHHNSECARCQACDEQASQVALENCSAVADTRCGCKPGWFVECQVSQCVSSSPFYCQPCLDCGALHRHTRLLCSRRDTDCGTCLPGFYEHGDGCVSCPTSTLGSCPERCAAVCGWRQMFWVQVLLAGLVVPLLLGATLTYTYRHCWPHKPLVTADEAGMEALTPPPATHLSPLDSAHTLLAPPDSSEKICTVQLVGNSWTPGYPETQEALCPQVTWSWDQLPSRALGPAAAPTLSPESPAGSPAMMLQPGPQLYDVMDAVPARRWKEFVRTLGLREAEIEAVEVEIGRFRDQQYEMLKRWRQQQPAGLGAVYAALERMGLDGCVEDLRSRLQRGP
# [3] = target: T1, human DR3 (full length, on cells) (human); experiment: flow cytometry on CD3/CD28-stimulated human CD4+ T cells (isotype control)
# TL1A (R&D Systems) [4] = target: TL1A (R&D Systems) (UniProt O95150); experiment: cell-based or functional assay
# TL1A (R&D Systems) [5] = target: TL1A (R&D Systems) (UniProt O95150); experiment: cell-based or functional assay; remark: listed apart in the source
# Sequence of TL1A (R&D Systems) (O95150 72-251 limits assumed): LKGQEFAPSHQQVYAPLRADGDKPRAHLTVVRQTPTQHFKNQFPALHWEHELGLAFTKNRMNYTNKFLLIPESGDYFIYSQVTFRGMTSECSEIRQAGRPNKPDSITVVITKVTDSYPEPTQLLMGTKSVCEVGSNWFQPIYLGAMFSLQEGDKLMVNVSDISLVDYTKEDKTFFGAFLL
substance,measurement,setting,value
0158 (Hz-aTNP isotype control Fab),max percentage inhibition,[1],10%
same,"max % inhibition of TNFalpha, average (n 8)",[2],-1.8%
same,"max % inhibition of TNFalpha, donor 1",[2],1.24%
same,"max % inhibition of TNFalpha, donor 2",[2],0.75%
IgG1 isotype (antibody),Median Fluorescent Intensity,[3],222
same,Staining index (MFI Ab/MFI Isotype),[3],1
"MAB7441 (R&D Systems), TL1A specific antibody","fold response, DR3 reporter, TL1A + 2.5 microg/ml MAb7441",TL1A (R&D Systems) [4],2.3 fold and 2 fold and 1.8 fold
same,"fold response, DR3 reporter, TL1A + 2.5 microg/ml MAb7441",TL1A (R&D Systems) [5],3.7 fold

# Reference: patent US20170305994A1
